Earlier results, collected in publication PMC10871162.
Where two headings read alike, the source gives them in different places.

Key:
[1] = molecular target: TRTK-12 (CapZ peptide) (Homo sapiens) (UniProt P52907)
[2] = molecular target: RyR peptide RyR peptide (Homo sapiens) (UniProt P21817)
RyR peptide = RyR peptide (UniProt P21817)
RIIβ peptide = RIIβ peptide (UniProt P31323)
[3] = molecular target: nonmuscle myosin IIA mysIIA peptide (Homo sapiens) (UniProt P35579)
[4] = molecular target: myosin IIA peptide (Homo sapiens) (UniProt P35579)
[5] = molecular target: TRTK-12 (CapZ peptide) (Homo sapiens) (UniProt P52907); remark: listed apart in the source

UniProt P31323, sequence (P31323 whole entry): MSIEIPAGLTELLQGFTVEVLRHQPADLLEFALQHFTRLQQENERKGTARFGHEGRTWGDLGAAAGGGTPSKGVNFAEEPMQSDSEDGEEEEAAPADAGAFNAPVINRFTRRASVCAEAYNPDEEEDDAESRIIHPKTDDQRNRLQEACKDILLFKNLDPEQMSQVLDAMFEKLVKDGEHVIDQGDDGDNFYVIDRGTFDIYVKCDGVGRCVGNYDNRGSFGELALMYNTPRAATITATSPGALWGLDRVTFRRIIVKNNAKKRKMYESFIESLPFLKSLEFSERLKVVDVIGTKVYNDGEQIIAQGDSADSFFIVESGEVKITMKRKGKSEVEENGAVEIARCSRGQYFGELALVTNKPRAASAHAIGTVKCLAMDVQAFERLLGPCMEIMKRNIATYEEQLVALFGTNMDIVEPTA

Substance: S100A1 (from UniProt P23297)
- Kd [1]: 23 µM
- Kd [2]: 8 µM
- Kd (RyR peptide): 8 µM
- Kd (RIIβ peptide): 2000 nM

Substance: S100A4 (from UniProt P26447)
- Kd [3]: < 1 nM
- Kd [4]: < 1 nM

Substance: S100B (from UniProt P04271)
- Kd [5]: 2900 nM
